From PMC7532178, “Interaction of protocadherin-15 with the scaffold protein whirlin supports its anchoring of hair-bundle lateral links in cochlear hair cells” (Scientific Reports, 2020) come the findings set out here.

One may read the Kd as the constant that tells how readily two partners part at equilibrium. A high value points to a looser complex.

What all share (assay): SPR; ProteOn XPR 36; N-terminally biotinylated peptides captured on a Neutravidin NLC sensor chip, whirlin fragments flowed as analytes at 20 μL/min for 2 min; 250 mM NaCl, 50 mM Tris pH 7.5, 0.5 mM TCEP; steady-state fit Req = (Rmax*C)/(Kd+C); mean of three experiments; Figure 4B shows the responses at 10 μM
Common to all, as to details: both partners purified
(In general: In SPR one partner is held on a chip, and binding of the other changes the refractive index at the surface.)

The target in test [1] is T1, whirlin PDZ1-Hp (aa residues 137-246) (mouse, UniProt Q80VW5-1 137-246).
T1 construct: extra 7 aa at the N-terminus of all recombinant proteins of the study; whirlin, residues 137-246: PDZ1 with its hairpin extension Hp1; also called PDZ1 + Hp1; whirlin PDZ1-Hp1 fragment
T1 sequence: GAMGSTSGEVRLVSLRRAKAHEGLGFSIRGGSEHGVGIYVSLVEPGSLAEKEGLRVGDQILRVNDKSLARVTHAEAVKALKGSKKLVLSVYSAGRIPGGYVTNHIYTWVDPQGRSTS

In test [2] the target is T2, whirlin-NTR-PDZ1-Hp1 (aa residues 2-265) (mouse, UniProt Q80VW5-1 2-265).
T2 construct: extra 7 aa at the N-terminus of all recombinant proteins of the study; whirlin (long isoform, L-whirlin), residues 2-265: NTR (with HHD1), PDZ1 and hairpin Hp1; The methods call the 2-265 construct whirlin-NTR-PDZ1; also called NTR-PDZ1-Hp1 whirlin fragment; Nter-PDZ1-Hp1; source: E. coli BL21 (DE3) codonPlus-RIPL, purified (Glutathione Sepharose 4B, GST removed by TEV proteinase, SEC)
T2 sequence: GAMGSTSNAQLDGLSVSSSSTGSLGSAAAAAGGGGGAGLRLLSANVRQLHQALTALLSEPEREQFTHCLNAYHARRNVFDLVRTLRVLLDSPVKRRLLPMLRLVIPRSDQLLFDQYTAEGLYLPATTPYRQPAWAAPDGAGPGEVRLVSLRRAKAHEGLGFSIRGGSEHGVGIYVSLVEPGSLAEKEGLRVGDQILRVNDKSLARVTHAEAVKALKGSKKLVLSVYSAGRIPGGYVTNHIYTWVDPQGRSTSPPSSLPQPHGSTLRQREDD

Test [3] deals with T3, whirlin-NTR (aa residues 2-147) (mouse, UniProt Q80VW5-1 2-147).
T3 construct: extra 7 aa at the N-terminus of all recombinant proteins of the study; also called entire NTR of whirlin (containing the HHD1 domain); source: E. coli BL21 (DE3) codonPlus-RIPL, purified (Glutathione Sepharose 4B, GST removed by TEV proteinase, SEC)
T3 sequence: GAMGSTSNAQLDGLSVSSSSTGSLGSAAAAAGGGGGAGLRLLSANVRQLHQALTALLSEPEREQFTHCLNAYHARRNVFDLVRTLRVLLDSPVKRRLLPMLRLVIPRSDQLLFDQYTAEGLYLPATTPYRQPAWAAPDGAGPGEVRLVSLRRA

Test [4] deals with T4, whirlin-PDZ3 (aa residues 821-915) (mouse, UniProt Q80VW5-1 821-915).
T4 construct: extra 7 aa at the N-terminus of all recombinant proteins of the study; whirlin, residues 821-915: PDZ3 domain, common to L- and S-whirlin; also called whirlin PDZ3 domain
T4 sequence: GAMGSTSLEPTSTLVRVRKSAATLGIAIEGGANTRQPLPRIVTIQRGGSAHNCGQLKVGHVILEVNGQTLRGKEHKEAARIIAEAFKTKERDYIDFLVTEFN

Test [5] has as its target T5, whirlin-PDZ1 (aa residues 137-228) (mouse, UniProt Q80VW5-1 137-228).
T5 construct: extra 7 aa at the N-terminus of all recombinant proteins of the study; whirlin, residues 137-228: PDZ1 domain; also called whirlin PDZ1 domain alone; source: E. coli BL21 (DE3) codonPlus-RIPL, purified (Glutathione Sepharose 4B, GST removed by TEV proteinase, SEC)
T5 sequence: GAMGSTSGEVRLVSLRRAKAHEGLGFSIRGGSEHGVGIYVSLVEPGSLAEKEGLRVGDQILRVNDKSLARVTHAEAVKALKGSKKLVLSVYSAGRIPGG

Test [6] addresses T6, whirlin-PDZ2 (aa residues 272-368) (mouse, UniProt Q80VW5-1 272-368).
T6 construct: extra 7 aa at the N-terminus of all recombinant proteins of the study; whirlin, residues 272-368: PDZ2 domain; source: E. coli BL21 (DE3) codonPlus-RIPL, purified (Glutathione Sepharose 4B, GST removed by TEV proteinase, SEC)
T6 sequence: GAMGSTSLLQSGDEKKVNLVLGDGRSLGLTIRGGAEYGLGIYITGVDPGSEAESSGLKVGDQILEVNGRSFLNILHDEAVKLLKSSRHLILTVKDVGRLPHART

No end group written: not given here. *: point of attachment. Biotin = O=C1N[C@H]2[C@H](CS[C@H]2CCCCC(=O)*)N1; TTDS = trioxatridecan-succinamic acid spacer

B1: PCDH15-CD2 C-terminal peptide (biotin-TTDS-GANSEQYNTAL) (peptide)
peptide: {Biotin-TTDS}-GANSEQYNTAL
notes: C-terminal 11 aa of protocadherin-15 isoform CD2, including the PBM; source: synthetic peptide (Eurogentec); not shown: biotin, N-terminal, kept
B1: the equilibrium dissociation constant (Kd) was 33 µM in test [1]; 8.5 µM in test [2]; more than 1000 µM in test [3]; more than 1000 µM in test [4]; 147 µM in test [5]; more than 1000 µM in test [6].

B2: PCDH15-CD3 C-terminal peptide (biotin-TTDS-MGPWNSLHIPMTKL) (peptide)
peptide: {Biotin-TTDS}-MGPWNSLHIPMTKL
notes: C-terminal 14 aa of protocadherin-15 isoform CD3, including the PBM; source: synthetic peptide (Eurogentec); not shown: biotin, N-terminal, kept
Consider B2, for which the dissociation constant (Kd) in test [1] was 11 µM; in test [2] it was 4.2 µM; in test [3], more than 1000 µM; in test [4], 230 µM; in test [5], 34 µM; in test [6], 460 µM.

B3: PCDH15-CD1 C-terminal peptide (biotin-TTDS-GIDVQPHSQSTSL) (peptide)
peptide: {Biotin-TTDS}-GIDVQPHSQSTSL
notes: C-terminal 13 aa of protocadherin-15 isoform CD1, including the PBM; source: synthetic peptide (Eurogentec); not shown: biotin, N-terminal, kept
In the case of B3, the Kd in test [1] was 29 µM; in test [2], 8.8 µM; in test [3], more than 1000 µM; in test [4] it was more than 1000 µM; in test [5], 106 µM; in test [6], more than 1000 µM.
